Consider four substances from article PMC5481814, “Stapled Voltage-Gated Calcium Channel (CaV) α-Interaction Domain (AID) Peptides Act As Selective Protein–Protein Interaction Inhibitors of CaV Function” (ACS Chemical Neuroscience, 2017).

Assay [1] deals with CaVβ2a core (unimolecular CaVβ2a construct) (rat). Description: ITC; 20 μM AID peptide titrated into 2 μM CaVβ2a core; 15 °C; 150 mM KCl, 10 mM potassium phosphate, pH 7.3; single site binding model. A general note: In ITC the heat of successive injections is recorded.
Assay [2] has as its target CaVβ2a core (Rattus norvegicus) (UniProt Q8VGC3). Description: ITC. The settings on record: cited from earlier work.
Assay [3] has as its target Human CaV1.2 (α1C77) (human) (UniProt Q13936).
Assay [4] addresses Human CaV1.2-Y437A (human).

Sequence of Human CaV1.2 (α1C77) (human) (Q13936 other isoform, or with tags, fused parts or gaps): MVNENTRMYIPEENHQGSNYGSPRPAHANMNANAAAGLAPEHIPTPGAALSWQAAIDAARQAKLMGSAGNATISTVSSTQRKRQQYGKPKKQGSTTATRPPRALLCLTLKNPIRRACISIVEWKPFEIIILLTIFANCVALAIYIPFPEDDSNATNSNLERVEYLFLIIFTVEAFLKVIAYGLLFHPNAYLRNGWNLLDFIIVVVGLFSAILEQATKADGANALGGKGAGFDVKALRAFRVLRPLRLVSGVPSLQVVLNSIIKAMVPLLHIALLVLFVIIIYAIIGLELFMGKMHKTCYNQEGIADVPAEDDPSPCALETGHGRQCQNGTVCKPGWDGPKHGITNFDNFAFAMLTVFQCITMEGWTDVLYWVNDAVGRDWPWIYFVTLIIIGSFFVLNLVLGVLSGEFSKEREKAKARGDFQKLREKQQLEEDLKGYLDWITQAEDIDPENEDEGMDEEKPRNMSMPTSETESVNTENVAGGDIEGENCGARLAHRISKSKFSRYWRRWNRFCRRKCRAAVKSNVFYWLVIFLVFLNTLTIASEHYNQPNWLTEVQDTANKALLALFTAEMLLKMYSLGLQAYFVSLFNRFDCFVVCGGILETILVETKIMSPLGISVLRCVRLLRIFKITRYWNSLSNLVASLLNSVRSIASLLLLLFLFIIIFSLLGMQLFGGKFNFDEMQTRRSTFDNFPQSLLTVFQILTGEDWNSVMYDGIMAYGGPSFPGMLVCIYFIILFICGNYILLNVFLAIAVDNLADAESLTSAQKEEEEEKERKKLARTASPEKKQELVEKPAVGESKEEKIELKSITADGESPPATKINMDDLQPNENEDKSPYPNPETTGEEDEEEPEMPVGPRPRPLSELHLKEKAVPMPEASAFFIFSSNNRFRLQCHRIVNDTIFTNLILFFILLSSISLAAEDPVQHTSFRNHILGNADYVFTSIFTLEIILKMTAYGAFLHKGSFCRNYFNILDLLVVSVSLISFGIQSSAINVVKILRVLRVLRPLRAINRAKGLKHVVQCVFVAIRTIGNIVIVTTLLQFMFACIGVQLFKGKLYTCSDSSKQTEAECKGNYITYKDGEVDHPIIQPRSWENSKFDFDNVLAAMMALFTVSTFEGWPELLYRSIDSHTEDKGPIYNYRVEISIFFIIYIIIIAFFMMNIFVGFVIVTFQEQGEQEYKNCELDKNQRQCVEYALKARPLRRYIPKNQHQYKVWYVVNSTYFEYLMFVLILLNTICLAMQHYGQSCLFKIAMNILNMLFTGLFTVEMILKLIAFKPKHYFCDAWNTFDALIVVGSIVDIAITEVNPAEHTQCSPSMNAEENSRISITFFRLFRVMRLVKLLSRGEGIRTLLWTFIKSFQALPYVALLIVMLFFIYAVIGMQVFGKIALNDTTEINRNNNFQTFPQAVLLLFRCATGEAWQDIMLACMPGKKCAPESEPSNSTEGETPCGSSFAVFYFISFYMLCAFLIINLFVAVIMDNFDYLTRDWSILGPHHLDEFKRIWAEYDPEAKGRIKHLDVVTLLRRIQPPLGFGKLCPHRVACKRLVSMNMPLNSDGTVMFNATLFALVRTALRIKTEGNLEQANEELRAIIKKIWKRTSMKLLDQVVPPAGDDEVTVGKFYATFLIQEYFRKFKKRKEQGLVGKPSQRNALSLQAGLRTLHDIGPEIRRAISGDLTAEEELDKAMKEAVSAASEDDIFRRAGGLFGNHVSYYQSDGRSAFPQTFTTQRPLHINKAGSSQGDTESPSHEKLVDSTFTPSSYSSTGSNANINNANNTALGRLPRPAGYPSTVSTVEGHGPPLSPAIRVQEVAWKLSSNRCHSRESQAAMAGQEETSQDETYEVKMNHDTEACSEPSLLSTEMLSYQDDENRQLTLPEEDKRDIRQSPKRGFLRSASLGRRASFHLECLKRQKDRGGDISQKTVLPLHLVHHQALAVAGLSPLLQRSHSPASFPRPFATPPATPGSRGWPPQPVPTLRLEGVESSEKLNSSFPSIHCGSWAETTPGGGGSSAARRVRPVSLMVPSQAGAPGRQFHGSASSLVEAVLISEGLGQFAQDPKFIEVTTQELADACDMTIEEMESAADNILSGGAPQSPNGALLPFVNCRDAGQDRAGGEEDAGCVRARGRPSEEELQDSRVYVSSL
Sequence of CaVβ3 (expressed in oocytes) (P54286 whole entry): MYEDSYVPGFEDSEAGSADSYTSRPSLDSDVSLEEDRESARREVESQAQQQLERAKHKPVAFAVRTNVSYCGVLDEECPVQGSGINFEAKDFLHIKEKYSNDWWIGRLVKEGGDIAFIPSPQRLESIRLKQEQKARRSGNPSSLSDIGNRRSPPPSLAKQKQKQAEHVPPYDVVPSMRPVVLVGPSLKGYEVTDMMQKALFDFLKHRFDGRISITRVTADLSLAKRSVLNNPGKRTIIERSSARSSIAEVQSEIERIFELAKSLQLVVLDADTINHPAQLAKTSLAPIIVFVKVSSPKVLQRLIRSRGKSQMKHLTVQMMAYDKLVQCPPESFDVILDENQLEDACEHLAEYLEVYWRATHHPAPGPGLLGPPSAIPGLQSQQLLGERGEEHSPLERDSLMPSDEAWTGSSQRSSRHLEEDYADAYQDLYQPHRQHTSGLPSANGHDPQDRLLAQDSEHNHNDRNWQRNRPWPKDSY
Sequence of CaV1.2 AID peptide AID (Q13936 425-448): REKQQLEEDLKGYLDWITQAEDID
Sequence of CaVβ2a core (Rattus norvegicus) (Q8VGC3 68-476): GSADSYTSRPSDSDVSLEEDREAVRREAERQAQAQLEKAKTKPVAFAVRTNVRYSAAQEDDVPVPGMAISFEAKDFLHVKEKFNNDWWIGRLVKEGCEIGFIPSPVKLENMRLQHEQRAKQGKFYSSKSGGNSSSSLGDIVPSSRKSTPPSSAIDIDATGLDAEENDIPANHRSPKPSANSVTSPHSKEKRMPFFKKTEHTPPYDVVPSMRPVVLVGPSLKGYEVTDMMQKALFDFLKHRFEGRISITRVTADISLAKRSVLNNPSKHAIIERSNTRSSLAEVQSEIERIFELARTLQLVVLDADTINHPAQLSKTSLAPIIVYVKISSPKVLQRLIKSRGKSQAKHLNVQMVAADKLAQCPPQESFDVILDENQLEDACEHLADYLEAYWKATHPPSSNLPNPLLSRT

Usually Kd stands for a measure of binding affinity in units of concentration. One may read the stoichiometry N as the number of molecules, sites or subunits per partner or assembly. Turning to “CaV1.2 AID peptide (α-interaction domain, unmodified)”, in assay [1], the Kd stood at 6.6 nM, the dH is -15.6 kcal mol^–1 and the stoichiometry N is 0.94.
For “CaV1.2 AID peptide AID (from UniProt Q13936)”, in assay [2], the Kd is 5.3 nM.
In assay [3], “CaVβ3 (expressed in oocytes) (from UniProt P54286 1-477) (natural protein)” registered a time constant τ for the loss of CaV1.2:CaVβ3 channels (rundown of Imax, single exponential fit) after injection of 2.8 mM AID peptide of 4.6 min and a time constant τ for the loss of CaV1.2:CaVβ3 channels (rundown of Imax, single exponential fit) after injection of 2.8 mM AID-CAP peptide of 5.3 min.
In assay [4], “Rat CaVβ2a (expressed in oocytes) (natural protein)” registered a time constant τ of the rundown of Imax of CaV1.2-Y437A:CaVβ2a currents after injection of 400 μM AID peptide (single exponential fit) of 5.3 min and a time constant τ of the rundown of Imax of CaV1.2-Y437A:CaVβ2a currents after injection of 400 μM AID-CAP peptide (single exponential fit) of 4.1 min.
